Experiment [1] deals with TFIIB (UniProt Q00403). Kind of experiment: FLAG co-immunoprecipitation, TFIIB immunoblot. Particulars: reference: FLAG-WT-HSF1. For orientation: In western blotting, separated proteins are transferred to a membrane and probed.
Experiment [2] deals with T1, FLAG-tagged WT-HSF1 (human), Q00613.
T1 chain: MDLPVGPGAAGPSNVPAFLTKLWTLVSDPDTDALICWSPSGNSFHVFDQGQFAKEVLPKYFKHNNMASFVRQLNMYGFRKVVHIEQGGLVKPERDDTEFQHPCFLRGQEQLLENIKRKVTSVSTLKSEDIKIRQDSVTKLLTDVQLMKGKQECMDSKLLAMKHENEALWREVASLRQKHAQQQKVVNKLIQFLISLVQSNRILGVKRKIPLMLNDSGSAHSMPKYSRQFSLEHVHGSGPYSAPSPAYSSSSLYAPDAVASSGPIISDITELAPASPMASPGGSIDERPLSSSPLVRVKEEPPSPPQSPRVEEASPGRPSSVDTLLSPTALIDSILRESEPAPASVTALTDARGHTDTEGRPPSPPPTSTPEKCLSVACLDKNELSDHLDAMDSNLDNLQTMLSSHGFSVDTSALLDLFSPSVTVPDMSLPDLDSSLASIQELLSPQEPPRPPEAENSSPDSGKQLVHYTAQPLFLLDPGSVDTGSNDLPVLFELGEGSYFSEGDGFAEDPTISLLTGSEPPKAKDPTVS
In words: cross-linking + SEC; HEK-293 cells co-expressing AKT1 and WT- or T142A-HSF1, fixed with EGS; RIPA lysate on Superdex 200 Increase 10/300 GL in 50 mM Tris pH 8.0, 150 mM NaCl, 1% NP-40, 4 °C; fractions immunoblotted for HSF1. The note with it: remark: other sources report otherwise.

The target is the same in experiment [3]. Kind of experiment: cross-linking; HEK-293 cells transfected for 48 h with WT- or T142A-HSF1 with or without AKT1 or CK2; cells fixed with 1 mM EGS for 30 min at RT, quenched with 10 mM Tris pH 7.5, RIPA lysate, SDS/PAGE, immunoblot for HSF1 trimers. Particulars: remark: other sources report otherwise.

For “HSF1 (from UniProt Q00613) FLAG-S326A-HSF1”, the “binding against the reference” value in experiment [1] (sites S326) is on record as “weaker”.
With “HSF1 (from UniProt Q00613) FLAG-T527A-HSF1”, the “binding against the reference” value in experiment [1] (sites T527) is given as “lost”.

B1: FLAG-tagged WT-HSF1, Q00613 1-529 (natural protein)
chain: MDLPVGPGAAGPSNVPAFLTKLWTLVSDPDTDALICWSPSGNSFHVFDQGQFAKEVLPKYFKHNNMASFVRQLNMYGFRKVVHIEQGGLVKPERDDTEFQHPCFLRGQEQLLENIKRKVTSVSTLKSEDIKIRQDSVTKLLTDVQLMKGKQECMDSKLLAMKHENEALWREVASLRQKHAQQQKVVNKLIQFLISLVQSNRILGVKRKIPLMLNDSGSAHSMPKYSRQFSLEHVHGSGPYSAPSPAYSSSSLYAPDAVASSGPIISDITELAPASPMASPGGSIDERPLSSSPLVRVKEEPPSPPQSPRVEEASPGRPSSVDTLLSPTALIDSILRESEPAPASVTALTDARGHTDTEGRPPSPPPTSTPEKCLSVACLDKNELSDHLDAMDSNLDNLQTMLSSHGFSVDTSALLDLFSPSVTVPDMSLPDLDSSLASIQELLSPQEPPRPPEAENSSPDSGKQLVHYTAQPLFLLDPGSVDTGSNDLPVLFELGEGSYFSEGDGFAEDPTISLLTGSEPPKAKDPTVS
For the molecule B1, the stoichiometry N in experiment [2] and in experiment [3] was 3 in each case.

As usually defined, the stoichiometry N is the number of molecules, sites or subunits per partner or assembly.
